From patent US20240360228A1 (BIOLEGEND, published 2024)

Tests used:
[1] = target: T1, human chemokine (C-C motif) receptor 8 (CCR8) (human, UniProt P51685 1-355); assay: flow cytometry blocking, PBMC CCR8+ CD4+ cells; competitor PE-AB12 (its MFI is read)
T1 construct: On human peripheral blood lymphocytes / PBMC (native) or on human CCR8 GFP-transfected Ba/F3 cells; also called hCCR8; human CCR8
Description: (§1) For blocking studies, 100 μL of the cell suspension were incubated with 10 μg purified isotype control, AB1, AB2, AB3, AB4, AB5, AB8, AB9, AB10, AB11, AB12, AB13, AB14, AB15, and Commercial ABI antibodies, or isotype control, as blocking agents.
(§2) After incubation with the blocking agent, the cells were incubated with 0.25 μg of the indicated PE-conjugated antibody plus anti-human CD4 APC or anti-human CD3 for another 15 minutes in the dark and then washed 2 times with Cell Staining Buffer, and acquired in a FACSCanto II flow cytometer (BD Biosciences); the data was analyzed using FCS Express (De Novo Software); MFI correspond to the CCR8+ CD4+ lymphocytes or CCR8+ CD3+ lymphocytes.
(§3) Percentage original MFI was calculated by dividing the MFI of samples blocked with AB1, AB2, AB3, AB4, AB5, AB6, AB7, AB8, AB9, AB10, AB11, AB12, AB13, AB14, AB15, and Commercial ABI antibodies, by the MFI of samples blocked with the corresponding isotype control. This value was subtracted from 100 to get a blocking percentage. The formula is shown below: […]

[2] = target: T1, human chemokine (C-C motif) receptor 8 …; assay: flow cytometry blocking, PBMC CCR8+ CD4+ cells; competitor PE-AB5 (its MFI is read)
Description: as §1, §2, §3

[3] = target: T1, human chemokine (C-C motif) receptor 8 …; assay: flow cytometry blocking, PBMC CCR8+ CD4+ cells; competitor PE-AB11 (its MFI is read)
Description: as §1, §2, §3

[4] = target: T1, human chemokine (C-C motif) receptor 8 …; assay: flow cytometry blocking, PBMC CCR8+ CD4+ cells; competitor PE-AB6 (its MFI is read)
Description: as §1, §2, §3

[5] = target: T1, human chemokine (C-C motif) receptor 8 …; assay: flow cytometry blocking, PBMC CCR8+ CD4+ cells; competitor PE-AB2 (its MFI is read)
Description: as §1, §2, §3

[6] = target: T1, human chemokine (C-C motif) receptor 8 …; assay: flow cytometry blocking, PBMC CCR8+ CD4+ cells; competitor PE-AB10 (its MFI is read)
Description: as §1, §2, §3

[7] = target: T1, human chemokine (C-C motif) receptor 8 …; assay: flow cytometry blocking, PBMC CCR8+ CD4+ cells; competitor PE-AB3 (its MFI is read)
Description: as §1, §2, §3

[8] = target: T1, human chemokine (C-C motif) receptor 8 …; assay: flow cytometry blocking, PBMC CCR8+ CD4+ cells; competitor PE-AB4 (its MFI is read)
Description: as §1, §2, §3

[9] = target: T1, human chemokine (C-C motif) receptor 8 …; assay: flow cytometry blocking, PBMC CCR8+ CD4+ cells; competitor PE-ABII (its MFI is read)
Description: as §1, §2, §3

[10] = target: T1, human chemokine (C-C motif) receptor 8 …; assay: cell-based or functional assay
[11] = target: T1, human chemokine (C-C motif) receptor 8 …; assay: flow cytometry blocking, PBMC CCR8+ CD4+ cells; competitor PE-AB14 (its MFI is read)
Description: as §1, §2, §3

[12] = target: T1, human chemokine (C-C motif) receptor 8 …; assay: flow cytometry blocking, PBMC CCR8+ CD4+ cells; competitor PE-AB13 (its MFI is read)
Description: as §1, §2, §3

[13] = target: T1, human chemokine (C-C motif) receptor 8 …; assay: flow cytometry blocking, PBMC CCR8+ CD4+ cells; competitor PE-AB1 (its MFI is read)
Description: as §1, §2, §3

[14] = target: T1, human chemokine (C-C motif) receptor 8 …; assay: flow cytometry blocking, PBMC CCR8+ CD4+ cells; competitor PE-AB15 (its MFI is read)
Description: as §1, §2, §3

T1 sequence (P51685 whole entry): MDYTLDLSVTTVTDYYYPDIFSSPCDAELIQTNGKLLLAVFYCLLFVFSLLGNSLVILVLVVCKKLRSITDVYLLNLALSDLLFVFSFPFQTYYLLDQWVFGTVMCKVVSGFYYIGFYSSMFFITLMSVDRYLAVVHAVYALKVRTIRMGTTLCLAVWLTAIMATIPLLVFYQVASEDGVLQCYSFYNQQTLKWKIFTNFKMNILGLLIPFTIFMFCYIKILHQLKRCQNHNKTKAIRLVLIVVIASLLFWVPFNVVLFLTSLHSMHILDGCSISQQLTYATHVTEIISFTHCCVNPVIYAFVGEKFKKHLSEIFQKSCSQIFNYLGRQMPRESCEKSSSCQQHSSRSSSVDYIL

Row | % Blocking [1] [%] | MFI [1] | % Blocking [2] [%] | MFI [2] | % Blocking [3] [%] | MFI [3] | % Blocking [4] [%] | MFI [4] | % Blocking [5] [%] | MFI [5] | % Blocking [6] [%] | MFI [6] | % Blocking [7] [%] | MFI [7] | % Blocking [8] [%] | MFI [8] | % Blocking [9] [%] | MFI [9] | % hCCR8-Ba/F3 - THP-1 complexes [10] [%] | % Blocking [11] [%] | Binder | other results
1 | -6.83 | 1040 | 25.7 | 557 | -4.76 | 944 | 40.2 | 469 | 46.8 | 356 | 0.2 | 1010 | 48.3 | 359 | 100 | 0 | 2.87 | 1080 | 0.6 | 6.44 | AB1 (antibody, V domains shown, Hybridoma monoclonal (mice or rats immunised); Used purified and PE-conjugated; also called antibody 1; clone 1) VH: QVQLKESGPGLVKPSETLSLTCTVSGFSLTSYHISWVRQPPGKGLEWMGVIWGDGSKTYNSALKSRLSISRDTSKSQVFLKMRSLKTEDTATYYCARGGDSGFAYWGQGTLVTVSS VL: DIQMTQSPASLSASLEEIVTITCQASQDIGNWLSWYQQKPGKSPQLLIYGTTNLADGVPSRFSGSRSGTQYSLKISRLQVEDIGIYYCLQAYSVPLTFGSGTKLEIK | MFI [11]: 829; % Blocking [12]: 1.62%; MFI [12]: 921; % Blocking [13]: 28.8%; MFI [13]: 467; % Blocking [14]: 1.66%; MFI [14]: 780
2 | -7.35 | 1050 | 38.8 | 459 | -4.37 | 941 | 45.5 | 427 | 37 | 422 | -1.1 | 1020 | 100 | 0 | 34.6 | 446 | 3.05 | 1070 | 0.74 | -2.68 | AB3 (antibody, V domains shown, Hybridoma monoclonal; also called antibody 3; clone 3) VH: QVQLKESGPGLVKPSETLSLTCTVSGFSLTSYHISWVRQPPGKGLEWMGVIWGDGKTTYNSALKSRLSISRDTSKSQVFLKMNSLKTEDTATYYCARGGDSGFAYWGQGTLVTVSS VL: DIQMTQSPASLSASLEEIVTITCQASQDIGNWLSWYQQKPGKSPQLLIYGTTNLADGVPSRFSGSRSGTQYSLKISRLQVEDIGIYYCLQAYSVPLTFGSGTKLEIK | MFI [11]: 910; % Blocking [12]: 7.12%; MFI [12]: 870; % Blocking [13]: 36.5%; MFI [13]: 416; % Blocking [14]: -10.2%; MFI [14]: 874
3 | -4.04 | 1020 | 45.1 | 411 | -13.3 | 1020 | 47.3 | 413 | 45.8 | 363 | -12.2 | 1130 | 48.2 | 359 | -61.4 | 1100 | -7.57 | 1190 | 0.43 | 0.97 | AB4 (antibody, V domains shown, Hybridoma monoclonal; also called antibody 4; clone 4) VH: QVQLKESGPGLVKPSETLSLTCTVSGFSLTGYHVSWVRQPPGKGLEWMGVIWGDGRTTYNSALKSRLSISRDTSKSQVFLKMSSLKTEDTATYYCARGGDSGFAYWGQGTLVTVSS VL: DIQMTQSPASLSASLEEIVTITCQASQDIGNWLSWYQQKPGKSPQLLIYGATSLADGVPSRFSGSRSGTQFSLKISRLQVEDIGIYYCLQAYIVPLTFGSGTKLESK | MFI [11]: 878; % Blocking [12]: -3.67%; MFI [12]: 971; % Blocking [13]: 100%; MFI [13]: 0; % Blocking [14]: -7.83%; MFI [14]: 855
4 | 43.3 | 553 | -29.2 | 969 | 44.4 | 501 | -23.3 | 966 | -32.6 | 888 | 28.6 | 720 | -23.3 | 855 | -39.4 | 951 | 9.26 | 1000 | 0.97 | -237 | AB14 (antibody, V domains shown, Hybridoma monoclonal; also called antibody 14; clone 14) VH: EVQLVESGGGLVQPKGSLKLSCAASGFTFNTYAMNWVRQAPGKGLEWVARIRSKSNNYATYYVDSVKDRFTISRDDSQSMLYLQINNLKTEDTAMYYCVRGRELGPYSAMDYWGQGTSVTVSS VL: DIVMTQAAPSVPVTPGESVSISCRSSKSLLHSNGNTYLYWFLQRPGQSPQLLIYRMSNLASGVPDRFSGSGSGTAFTLRISRVEAEDVGLYYCMQHLEYPFTFGGGTKLEIK | MFI [11]: 2980; % Blocking [12]: 38.4%; MFI [12]: 577; % Blocking [13]: -39.8%; MFI [13]: 916; % Blocking [14]: -218%; MFI [14]: 2520
5 | -5.38 | 1030 | -36.2 | 1020 | 23.6 | 689 | -24.1 | 973 | -46.8 | 983 | 5.71 | 950 | -27.5 | 885 | -54.7 | 1060 | 22.9 | 854 | 1.56 | 100 | AB12 (antibody, V domains shown, Hybridoma monoclonal; also called antibody 12; clone 12) VH: EVQLVESGGGLVQPKGSLKLSCAASGFAFNTYAMNWVRQAPGKGLEWIARLRSKSNFYATYYADSVKDRFTISRDDSQSMLYLQMNNLKTEDTAVYYCVRGRELGPSYAMDYWGQGTSVTVSS VL: DIVMTQAAPSVPVTPGESVSISCRSSKSLLHSNGNTYLYWFLQRPGQSPQLLIYRMSNLASGVPDRFSGSGSGTAFTLRISRVEAEDVGVYYCMQHLEYPYTFGGGTKLEIK | MFI [11]: 0; % Blocking [12]: 14.2%; MFI [12]: 803; % Blocking [13]: -45.4%; MFI [13]: 953; % Blocking [14]: 7.39%; MFI [14]: 734
6 | -21.6 | 1190 | -32.8 | 995 | 39.5 | 545 | -26.3 | 990 | -45.2 | 972 | -32.5 | 1340 | -38.4 | 961 | -41.9 | 969 | 15 | 942 | 0.47 | 27.5 | AB10 (antibody, V domains shown, Hybridoma monoclonal; also called antibody 10; clone 10) VH: EVQLVETGGGLVQPKGSLKLSCAVSGFTFKTNAMNWVRQAPGKGLEWVARIRSKSNKYATYYADSVKDRFTISRDDSQSMLYLQMNNLKTEDTAMYYCVRGSEMGYYYAMDYWGQGTSVTVSS VL: DIVMTQAAPSVPVTPGESVSISCRSSKSLLHSNGNTYLYWFLQRPGQSPQLLIYRMSNLASGVPDRFSGSGSGTAFTLRISRVEAEDVGVYYCMQHLEYPFTFGGGTKLEIK | MFI [11]: 642; % Blocking [12]: 2.16%; MFI [12]: 916; % Blocking [13]: -61.8%; MFI [13]: 1060; % Blocking [14]: -0.06%; MFI [14]: 793
